*: point of attachment. FITC = O=C1OC2(c3ccc(O)cc3Oc3cc(O)ccc32)c2ccc(NC(=S)*)cc21; Ahx = NCCCCCC(=O)O
Columns and labels:
hEGFRvIII = target: T1, hEGFRvIII (Homo sapiens, UniProt P00533, DELINS30-297G); assay: Phage display biopanning against hEGFRvIII with NGS enrichment analysis; format: binding; details: over rounds of biopanning
T1 construct: using purified and active extracellular domain for EGFRvIII protein; purchased Sino Biological
Experimental: Ph.D.-12™ Phage Display Peptide Library Kit was purchased from New England Biolabs Inc. (Beverly, MA, USA). Biopanning procedures were done according to the manufacturer's instruction with certain modifications. Briefly, a 96-well plate was coated with 150 μL hEGFRvIII (Sino Biological) (in the first two rounds at 100 μg/mL, the third round at 10 μg/mL) overnight at 4° C. Wells were washed with PBS, blocked with blocking buffer (3% BSA in PBS), washed six times with cold PBST (PBS+0.1% [v/v] Tween-20), then incubated with […] phage peptide library Ph.D.-12 for 2 hours at RT. […]
The NGS data analysis is an imperative approach to filter out all the non-specific binders and identify the putative binders. In addition, NGS also allows us to perform deeper quantitative analysis, such as calculating the frequency of amino acids distribution in each position of the peptide sequence, consensus motif and target unrelated peptides. […] This is highly useful as we can follow how the read of a peptide evolves or changes with the rounds of biopanning. […] The total number of sequences and the corresponding number of reads for each DNA sequence are recorded in a separate CSV file. […] Due to codon degeneracy, different codons can translate into same amino acids, thus after translation identical sequences exist with different reads. […]

[1] = target: human wild type EGF receptor (EGFR WT) on CLTH/EGFR WT cells (human) (UniProt P00533); assay: flow cytometry, 10 uM FITC-Ahx-peptide, 20 min RT, CLTH/EGFR WT cells; MFI minus blank cells, divided by correction factor
[2] = target: T2, human EGF receptor variant III (EGFRvIII) on CLTH/EGFRvIII cells (human, UniProt P00533 25-1210); assay: flow cytometry, normalized MFI on EGFRvIII cells over normalized MFI on EGFR WT cells
T2 construct: whole, on cells
Experimental: On FITC-Ahx-peptides. Flow cytometry analysis was also performed to quantitatively analyze the binding affinity of the synthetized peptides to the different cell types. […] The next day, cells were treated with FITC-Ahx-peptides using a stock solution in pure DMSO at 5 mM to reach a final concentration of 10 µM (final percentage of DMSO of 0.2%). Plates were incubated for 20 min at RT. Cells were detached from the plates by a PBS fush, transferred to FACS tubes and washed 2 times with 4 mL of PBS. Cells were stained with LIVE/DEAD™ Fixable Near-IR Dead Cell Stain Kit (Thermofisher) as a viability marker. Cells were analyzed by flow cytometry on a MACSQuant Analyser 16 (Miltenyi Biotec) using the MACS Quantify software to acquire and process the data. LIVE/DEAD™ Fixable dye was excited at 640 nm and fluorescence was collected with the 785/62 nm filter. FITC was excited at 488 nm and fluorescence was collected with the 525/50 nm filter. Viable cells were gated, FITC fluorescence intensity was recorded and the mean fluorescence intensity (MFI) was measured. MFI values were then normalized by substracting MFI from blank cells and dividing by the correction factor determined using a spectrofluorimeter.

## NPIVRSAEDGQL (Negative hit peptide) [negative hit peptide from biopanning]
hEGFRvIII
  enrichment on NGS: didn't show any significant enrichment

B1: FITC-Ahx-…-CONH2 (peptide)
peptide: {FITC-Ahx}-YHWYGYTPENVI-NH2
SMILES: CC[C@H](C)[C@H](NC(=O)[C@@H](NC(=O)[C@H](CC(N)=O)NC(=O)[C@H](CCC(=O)O)NC(=O)[C@@H]1CCCN1C(=O)[C@@H](NC(=O)[C@H](Cc1ccc(O)cc1)NC(=O)CNC(=O)[C@H](Cc1ccc(O)cc1)NC(=O)[C@H](Cc1c[nH]c2ccccc12)NC(=O)[C@H](Cc1c[nH]cn1)NC(=O)[C@H](Cc1ccc(O)cc1)NC(=O)CCCCCNC(=S)Nc1ccc2c(c1)C(=O)OC21c2ccc(O)cc2Oc2cc(O)ccc21)[C@@H](C)O)C(C)C)C(N)=O
[1]
  Normalized MFI: 4.5

B2: FITC-Ahx-YHWYGYTPENVI-CONH2 (peptide)
peptide: {FITC-Ahx}-YHWYGYTPENVI-NH2
SMILES: CC[C@H](C)[C@H](NC(=O)[C@@H](NC(=O)[C@H](CC(N)=O)NC(=O)[C@H](CCC(=O)O)NC(=O)[C@@H]1CCCN1C(=O)[C@@H](NC(=O)[C@H](Cc1ccc(O)cc1)NC(=O)CNC(=O)[C@H](Cc1ccc(O)cc1)NC(=O)[C@H](Cc1c[nH]c2ccccc12)NC(=O)[C@H](Cc1c[nH]cn1)NC(=O)[C@H](Cc1ccc(O)cc1)NC(=O)CCCCCNC(=S)Nc1ccc2c(c1)C(=O)OC21c2ccc(O)cc2Oc2cc(O)ccc21)[C@@H](C)O)C(C)C)C(N)=O
[2]
  Normalized MFI ratio vIII/WT: 2.1

Source: patent publication US20250368684A1, “NEW EGFRVIII-BINDING PEPTIDES, CONJUGATES AND USES THEREOF” (NANOTHERA BIOSCIENCES, INC., priority 2021, published 2025)
